“Also recorded” adds a separate entry of the source.
B1: murine ELANE: recombinant mouse ELANE activated with CTSC (protein, UniProt Q3UP87 27-265, looked up)
Neutrophil elastase: SEIVGGRPARPHAWPFMASLQRRGGHFCGATLIARNFVMSAAHCVNGLNFRSVQVVLGAHDLRRQERTRQTFSVQRIFENGFDPSQLLNDIVIIQLNGSATINANVQVAQLPAQGQGVGDRTPCLAMGWGRLGTNRPSPSVLQELNVTVVTNMCRRRVNVCTLVPRRQAGICFGDSGGPLVCNNLVQGIDSFIRGGCGSGLYPDAFAPVAEFADWINSIIRSHNDHLLTHPKDREGRTN
B2: mouse CD95 (mCD95): mouse CD95 overexpressed in cancer cells (protein, UniProt P25446 22-327, looked up)
Tumor necrosis factor …: QGTNSISESLKLRRRVRETDKNCSEGLYQGGPFCCQPCQPGKKKVEDCKMNGGTPTCAPCTEGKEYMDKNHYADKCRRCTLCDEEHGLEVETNCTLTQNTKCKCKPDFYCDSPGCEHCVRCASCEHGTLEPCTATSNTNCRKQSPRNRLWLLTILVLLIPLVFIYRKYRKRKCWKRRQDDPESRTSSRETIPMNASNLSLSKYIPRIAEDMTIQEAKKFARENNIKEGKIDEIMHDSIQDTAEQKVQLLLCWYQSHGKSDAYQDLIKGLKKAECRRTLDKFQDMVQKDLGKSTPDTGNENEGQCLE
B3: C2: hCD95 C-terminal peptide aa 212-331, mimics ELANE cleavage at site 2 (protein)
chain: SPTLNPETVAINLSDVDLSKYITTIAGVMTLSQVKGFVRKNGVNEAKIDEIKNDNVQDTAEQKVQLLRNWHQLHGKKEAYDTLIKDLKKANLCTLAEKIQTIILKDITSDSENSNFRNEI
B4: Cl: hCD95 C-terminal peptide aa 221-335, mimics ELANE cleavage at site 1 (protein)
chain: AINLSDVDLSKYITTIAGVMTLSQVKGFVRKNGVNEAKIDEIKNDNVQDTAEQKVQLLRNWHQLHGKKEAYDTLIKDLKKANLCTLAEKIQTIILKDITSDSENSNFRNEIQSLV
B5: N-terminal domain peptide of CD95: N-terminal domain of human CD95, aa 1-209 (protein, listed as Homo sapiens)
chain: MLGIWTLLPLVLTSVARLSSKSVNAQVTDINSKGLELRKTVTTVETQNLEGLHHDGQFCHKPCPPGERKARDCTVNGDEPDCVPCQEGKEYTDKAHFSSKCRRCRLCDEGHGLEVEINCTRTQNTKCRCKPNFFCNSTVCEHCDPCTKCEHGIIKECTLTSNTKCKEEGSRSNLGWLCLLLLPIPLIVWVKRKEVQKTCRKHRKENQGS
B6: full-length CD95: full length human CD95 (aa 1-335), isoform 1 (protein, listed as Homo sapiens)
chain: MLGIWTLLPLVLTSVARLSSKSVNAQVTDINSKGLELRKTVTTVETQNLEGLHHDGQFCHKPCPPGERKARDCTVNGDEPDCVPCQEGKEYTDKAHFSSKCRRCRLCDEGHGLEVEINCTRTQNTKCRCKPNFFCNSTVCEHCDPCTKCEHGIIKECTLTSNTKCKEEGSRSNLGWLCLLLLPIPLIVWVKRKEVQKTCRKHRKENQGSHESPTLNPETVAINLSDVDLSKYITTIAGVMTLSQVKGFVRKNGVNEAKIDEIKNDNVQDTAEQKVQLLRNWHQLHGKKEAYDTLIKDLKKANLCTLAEKIQTIILKDITSDSENSNFRNEIQSLV

Key:
[1] = system: human/murine cancer cells; test: In vitro cell viability of cancer cells (calcein-AM, CASP3, ANXA5); format: cell-based; settings: for effect of ELANE inhibitor treatment of ELANE or PMN media on cancer cell killing: PMSF 1 mM or A1AT 42 nM
Description: Cell lines. The ovarian cancer cell lines—CAOV3, OVCAR3, OVCAR4, OVCAR5, A2780, A2780/CP70, HeyA8, TykNu, SKOV3, ID8, and ID8p53-/- were a gift from Dr. Ernst Lengyel, University of Chicago. The breast cancer cell lines—MDA-MB-231, MDA-MB-231.BM1, MCF-7, M6C, E0771, and E0771.LMB were a gift from Dr. Marsha Rosner, University of Chicago. The colon carcinoma cell line RKO, glioblastoma cancer cell line T98G, osteosarcoma cell lines U-2OS and Saos-2, and the hepatocellular carcinoma cell line HepG2 were a gift from Dr. Kay McLeod, University of Chicago. The lung cancer cell line NCI-H552 was a gift from Dr. Stephanie Huang, University of Chicago, and A549 and LLC1 cells were purchased from ATTC. The melanoma cell lines—B16F10, Mel888, Mel1106, and SK-MEL-28 cells were a gift from Dr. Thomas Gajewski, University of Chicago. The pancreatic cancer cell line PANC1 was a gift from Dr. Yamuna Krishnan, University of Chicago. The leukemia cell line K562 was a gift from Dr. Amittha Wickrema, University of Chicago.
The prostate cancer cell lines—CWR22Rv1, LAPC4, and LNCaP were a gift from Dr. Donald Vander Griend, University of Chicago. The neuroblastoma cell lines—SK-N-BE(2) and NBL-WN cells were a gift from Dr. Lucy Godley, University of Chicago.
Neutrophil media collections. Freshly isolated human or murine neutrophils were plated in serum-free DMEM for 24 h. Conditioned media was collected, spun at 500×g for 5 min, and media protein levels were determined with a Bradford assay (Biorad).
PMN media manipulations. For boiling, PMN media was boiled at 95° C. for 5 min and spun at 15,000×g for 10 min to remove precipitated proteins. For dialysis, PMN media was placed into a Slide-a-Lyzer™ cassette (3.5 kDa cutoff, ThermoFisher Scientific) and dialyzed against 2×4L of PBS at 4° C. for 4 h. For PMSF-inactivation, PMN media was treated with PMSF (1 mM, Sigma) or A1AT (42 nM, Athens Research & Technology) and incubated at room temperature for up to 2 h. Residual PMSF was eliminated with a PD-10 desalting column (GE Healthcare Life). Inhibition of ELANE catalytic activity was confirmed using a chromogenic substrate activity assay (see below). For serum-spiking experiments, human, mouse, or fetal bovine serum (1% or 10%) was added to PMN media prior to or after exposing cancer cells. For immune-depletion studies, ELANE or ECP were immunoprecipitated using anti-ELANE (N2C3, GeneTx) or anti-ECP (MB S2535165, MyBioSource) coupled to Pierce™ Protein A/G Magnetic Beads (ThermoFisher Scientific).
(§1) In vitro cell viability assays. […] Luminescence was measured using a Victor X3 luminometer (PerkinElmer).

[2] = system: human and murine cancer cells; test: CD95 overexpression, ELANE-mediated apoptosis (ANXA5); format: cell-based; settings: ELANE 40 nM, ANXA5 at 30 min
Method: FIGS. 2A-2D Overexpressing CD95 proteins accelerates cancer cell killing by ELANE. Polycistronic adenoviral vectors were prepared to express the human and mouse CD95 sequences followed by the Encephalomyocarditis virus (EMCV) internal ribosome entry site and dTomato sequence under the control of the cytomegalovirus (CMV) promoter. Human and murine cancer cells or non-cancer cells were transduced to over-express full-length CD95, N-terminal CD95 (human: aa 1-209; mouse: aa 1-204), or C-terminal CD95 (human: aa 212-335; mouse: aa 204-327). (A): Transduction efficiency quantified by dTomato (Left). CD95 levels in dTomato− and dTomato+ cells quantified by geometric mean (MFI) (Middle). ANXA5 levels in dTomato− and dTomato+ cells 30 min after treatment with ELANE (40 nM) (Right). Representative data for A549 cells are shown. (B-C): Quantification of transduction efficiency (B) and relative CD95 overexpression (C) for cancer cells and non-cancer cells. (D): Quantification of ANXA5 levels following ELANE treatment (40 nM, 30 min) for mouse cancer cell lines (E0771, B16F10). *, p<0.05 Student's t-test.
as §1
(§2) CD95 overexpression studies. Polycistronic adenoviral vectors were prepared to express the human and mouse CD95 sequences followed by the Encephalomyocarditis virus (EMCV) internal ribosome entry site and dTomato sequence under the control of the cytomegalovirus (CMV) promoter (VectorBuilder). Human and murine cancer cells or normal or non-cancer cells were transduced to over-express full-length CD95, N-terminal CD95 (human: aa 1-209; mouse: aa 1-204), C-terminal CD95 (human: aa 212-335; mouse: aa 204-327), or C-terminal CD95 that mimicked ELANE cleavage at site 1 (human: aa 221-335), site 2 (human: aa 212-331), or both sites (aa 221-331). Cancer cells or normal or non-cancer cells were transduced with adenoviruses at an MOI of 50-250 depending on cell type, and expression of dTomato and CD95 (human: 558814; mouse, mouse: 565130, BD Biosciences) were confirmed by flow cytometry. A vector encoding GFP (Vector Builders) was used as a control.

[3] = system: cancer cells; test: CD95 protein overexpression in cancer cells, viability in absence of ELANE (calcein-AM); format: cell-based, human; settings: transient overexpression
Method: FIGS. 1A-1K. ELANE cleaves CD95 to selectively kill cancer cells. (A): Heatmap summary of ELANE's effects on survival, stress, and apoptosis pathways in cancer cells and healthy cells. (B-C): Cancer cells were treated with ELANE (100 nM) and CD95 cleavage was assessed by western blotting using anti-N-terminal (B) or anti-C-terminal antibodies (C). *, lower molecular weight CD95 fragment. (D): Cancer cells or non-cancer cells were transduced to overexpress CD95 proteins, and effects on ELANE-mediated apoptosis were quantified by ANXAS at 30 min. n=2/group. See FIG. 1I for transduction and CD95 over-expression. (E): Cleavage of recombinant human CD95 N-terminal (aa 1-173) or C-terminal (aa 212-335) proteins by ELANE was assessed by SDS-PAGE and Coomassie blue staining. (F): Bands from (E) were digested with trypsin and analyzed by mass spectrometry to identify putative ELANE cleavage sites (i.e., peptides with non-tryptic ends). Major non-tryptic peptides were quantified by ion chromatograms. (G): Schematic of ELANE cleavage sites in CD95. […] (H): Cleavage of recombinant peptides corresponding to aa 214-231 and aa 317-335 in CD95 by ELANE was monitored by mass spectrometry. (I): Cancer cells or non-cancer cells were treated with fluorescein-labeled ELANE for 10 min and uptake was visualized by immunofluorescence. (J): ELANE catalytic activity in cancer cell lysates following exposure to ELANE for 30 mins in the presence and absence of Dynasore (60 μM endocytosis inhibitor). Effect of Dynasore on cancer cell killing capability of ELANE (measured by calcein-AM). n=6/group. (K): Cancer cells or non-cancer cells were transduced to overexpress various CD95 proteins, and cell viability in the absence of ELANE was determined by calcein-AM. n=10/group. *, p<0.05 Student's t-test.
as §1, §2

| Molecule | effect of overexpression on ELANE-mediated killing [2] | cancer cell death/toxicity on expression in the absence of ELANE [3] | also measured |
| --- | --- | --- | --- |
| O=S(=O)(F)Cc1ccccc1 [PMSF] | – | – | effect of ELANE inhibitor treatment of ELANE or PMN media on cancer cell killing [1]: eliminated the ability of PMN media to kill cancer cells in vitro and in vivo; also recorded: protects cancer cells from apoptosis |
| A1AT: alpha-1-anti-trypsin, irreversible non-competitive ELANE inhibitor | – | – | effect of ELANE inhibitor treatment of ELANE or PMN media on cancer cell killing [1]: eliminated the ability of PMN media to kill cancer cells in vitro and in vivo; effect of ELANE inhibitor treatment of ELANE or PMN media on cancer cell killing ([1]; listed as alpha-1-antitrypsin): protects cancer cells from apoptosis |
| B1 | – | – | cancer cell killing by murine ELANE [1]: kills cancer cells |
| B2 | did not protect against ELANE-mediated killing, but rather accelerated it | – | – |
| B3 | – | toxic | cancer cell death/toxicity on expression in the absence of ELANE ([3]; listed as aa. 212-331 of SEQ ID NO:1): induced cancer cell death in the absence of ELANE |
| B4 | – | toxic | cancer cell death/toxicity on expression in the absence of ELANE ([3]; listed as aa. 221-335 of SEQ ID NO:1): induced cancer cell death in the absence of ELANE |
| B5 | had no effect | not toxic to cancer cells | – |
| B6 | accelerated ELANE-mediated killing in human cancer cells | not toxic to cancer cells | effect of overexpression on ELANE-mediated killing ([2]; listed as human CD95 (hCD95)): did not protect against ELANE-mediated killing, but rather accelerated it |

Source: patent publication US12611443B2, “Methods and compositions related to therapeutic peptides for cancer therapy” (THE UNIVERSITY OF CHICAGO, priority 2018, dated 2026)
